In US20210260070A1, “LYSIN CF-301 RESENSITIZES METHICILLIN-RESISTANT STAPHYLOCOCCUS AUREUA (MRSA) TO PENICILLIN DERIVATIVES AND FIRST GENERATION CEPHALOSPORINS” (priority 2018, published 2021):
“And” between values parts separate entries of the source, which are not always exact repeats. Equal values may be shown once.

Assays:
[1] = tested on: MRSA strain NRS 11; assay: Broth microdilution checkerboard assay; assay type: cell-based, Staphylococcus aureus; design: unit not given here; details: for MICinitial: each agent alone (initial); for MICfinal: * = Resensitization
Description: (§1) In some embodiments, the present lysin polypeptides reduce the minimum inhibitory concentration (MIC) of an antibiotic. Any known method to assess MIC may be used. In some embodiments, a checkerboard assay is used to determine the effect of a lysin on antibiotic concentration. The checkerboard assay is based on a modification of the CLSI method for MIC determination by broth microdilution (See Clinical and Laboratory Standards Institute (CLSI), CLSI. 2015. Methods for Dilution Antimicrobial Susceptibility Tests for Bacteria That Grow Aerobically; Approved Standard-10th Edition. Clinical and Laboratory Standards Institute, Wayne, Pa., which is herein incorporated by reference in its entirety and Ceri et al. 1999. J. Clin. Microbiol. 37: 1771-1776, which is also herein incorporated by reference in its entirety).
(§2) Checkerboards are constructed by first preparing columns of e.g., a 96-well polypropylene microtiter plate, wherein each well has the same amount of antibiotic diluted 2-fold along the horizontal axis. […] The lysin and antibiotic dilutions are then combined, so that each column has a constant amount of antibiotic and doubling dilutions of lysin, while each row has a constant amount of lysin and doubling dilutions of antibiotic. Each well thus has a unique combination of lysin and antibiotic. Bacteria are added to the drug combinations at a given concentration. […] Summation fractional inhibitory concentrations (ΣFICs) are calculated for each drug and the minimum ΣFIC value (ΣFICmin) is used to determine the effect of the lysin/antibiotic combination.
(§3) A step-wise approach was used to evaluate PlySs2 as a resensitizing agent. First, broth microdilution checkerboard assays were used to determine fractional inhibitory concentration index (FICI) values for combinations of PlySs2 with three β-lactam antibiotics [oxacillin (OXA), nafcillin (NAF), and cefazoline (CFZ)] against nine different MRSA strains. Data from the checkerboard assays were generated to determine the interaction and potency of PlySs2 with the β-lactam antibiotics in comparison to their individual activities. This comparison is represented as the FICI value, whereby values of ≤0.5 are consistent with synergy, values of >0.5-<1 are highly-additive, values of 1-≤2 are indifferent, and values >2 are antagonistic. Representative single agent MICs are also shown, determined for each agent alone (initial) and in combinations (final). Resensitization occurs in synergistic combinations in which the β-lactam antibiotic MIC values fall below established breakpoints, e.g. a MIC value of ≤2 for β-lactam-sensitive isolates, a MIC value of ≥4 for β-lactam-resistant isolates. See Clinical and Laboratory Standards Institute (CLSI), CLSI. 2019. M100 Performance Standards for Antimicrobial Susceptibility Testing; 29th Edition. Clinical and Laboratory Standards Institute, Wayne, Pa.

[2] = tested on: MRSA strain JMI 1280; assay: Broth microdilution checkerboard assay; assay type: cell-based, Staphylococcus aureus; design: unit not given here; details: for MICinitial: each agent alone (initial); for MICfinal: * = Resensitization
Description: as §1, §2, §3

[3] = tested on: MRSA strain CAIRD 426; assay: Broth microdilution checkerboard assay; assay type: cell-based, Staphylococcus aureus; design: unit not given here; details: for MICinitial: each agent alone (initial); for MICfinal: * = Resensitization
Description: as §1, §2, §3

[4] = tested on: MRSA strain MW2; assay: Broth microdilution checkerboard assay; assay type: cell-based, Staphylococcus aureus; design: unit not given here; details: for MICinitial: each agent alone (initial); for MICfinal: * = Resensitization
Description: as §1, §2, §3

[5] = tested on: MRSA strain HPV 107; assay: Broth microdilution checkerboard assay; assay type: cell-based, Staphylococcus aureus; design: unit not given here; details: for MICinitial: each agent alone (initial); for MICfinal: * = Resensitization
Description: as §1, §2, §3

[6] = tested on: MRSA strain ATCC 43300; assay: Broth microdilution checkerboard assay; assay type: cell-based, Staphylococcus aureus; design: unit not given here; details: for MICinitial: each agent alone (initial); for MICfinal: * = Resensitization
Description: as §1, §2, §3

[7] = tested on: MRSA strain JMI 227; assay: Broth microdilution checkerboard assay; assay type: cell-based, Staphylococcus aureus; design: unit not given here; details: for MICinitial: each agent alone (initial); for MICfinal: * = Resensitization
Description: as §1, §2, §3

[8] = tested on: MRSA strain JMI4789; assay: Broth microdilution checkerboard assay; assay type: cell-based, Staphylococcus aureus; design: unit not given here; details: for MICinitial: each agent alone (initial); for MICfinal: * = Resensitization
Description: as §1, §2, §3

[9] = tested on: MRSA strain ATCC 33591; assay: Broth microdilution checkerboard assay; assay type: cell-based, Staphylococcus aureus; design: unit not given here; details: for MICinitial: each agent alone (initial); for MICfinal: * = Resensitization
Description: as §1, §2, §3

[10] = tested on: nine different MRSA strains; assay: Broth microdilution checkerboard assays, summary over the panel; assay type: cell-based, Staphylococcus aureus; details: each of the nine MRSA strains; breakpoint MIC ≤2 sensitive
Description: as §1, §2
A step-wise approach was used to evaluate PlySs2 as a resensitizing agent. First, broth microdilution checkerboard assays were used to determine fractional inhibitory concentration index (FICI) values for combinations of PlySs2 with three β-lactam antibiotics [oxacillin (OXA), nafcillin (NAF), and cefazoline (CFZ)] against nine different MRSA strains. […] Representative single agent MICs are also shown, determined for each agent alone (initial) and in combinations (final). […]

[11] = tested on: MRSA; assay: Standard rabbit model of MRSA infective endocarditis (IE), CFU in valvular vegetations; assay type: in vivo, Staphylococcus aureus
Protocol: An ex vivo analysis was performed on tissue samples recovered after PlySs2 treatment in a standard rabbit model of MRSA infective endocarditis (IE), as disclosed in Xiong et al., Comparative efficacy of telavancin and daptomycin in experimental endocarditis due to multi-clonotype MRSA strains, J. ANTIMIC. CHEMO. (2016); 71(1):2890-94. The standard rabbit IE model was used to confirm the impact of PlySs2 treatment on oxacillin MICs. Four days after treatment with a single-dose of PlySs2 (0.18 mg/kg to 1.4 mg/kg) in the IE model, isolates were recovered from valvular vegetations and plated on TSAB (non-selective condition, Tables 3 and 4) and TSAB supplemented with PlySs2 over a range of concentrations (selective conditions, Tables 5 and 6). MIC values of the MRSA isolates were determined for both PlySs2 and oxacillin. Tables 3 and 4 below show the MICs calculated for PlySs2 and oxacillin, respectively, for valvular vegetations subject to the non-selective conditions.

[12] = in combination PlySs2 + OXA (final)
[13] = in combination PlySs2 + CFZ (final)
[14] = in combination PlySs2 + NAF (final)

Cc1onc(-c2ccccc2)c1C(=O)N[C@@H]1C(=O)N2[C@@H]1SC(C)(C)[C@@H]2C(=O)O [OXA, oxacillin]
MICinitial [1]: 256 | MICfinal [1, 12]: 2* | MICinitial [2]: 256 | MICfinal [2, 12]: 1* | MICinitial [3]: 4 | MICfinal [3, 12]: 1* | MICinitial [4]: 64 | MICfinal [4, 12]: 2* | MICinitial [5]: 8 | MICfinal [5, 12]: 0.5* | MICinitial [6]: 8 | MICfinal [6, 12]: 0.5* | MICinitial [7]: 16 | MICfinal [7, 12]: 1* | MICinitial [8]: 64 | MICfinal [8, 12]: 2* | MICinitial [9]: 256 | MICfinal [9, 12]: 1* | MIC in synergistic combination with PlySs2 relative to breakpoint [10]: below breakpoint values

B1: PlySs2: bacteriophage lysin derived from Streptococcus suis, amino acid sequence SEQ ID NO: 1 (245 residues) (protein, listed as Streptococcus suis)
chain: MTTVNEALNNVRAQVGSGVSVGNGECYALASWYERMISPDATVGLGAGVGWVSGAIGDTISAKNIGSSYNWQANGWTVSTSGPFKAGQIVTLGATPGNPYGHVVIVEAVDGDRLTILEQNYGGKRYPVRNYYSAASYRQQVVHYITPPGTVAQSAPNLAGSRSYRETGTMTVTVDALNVRRAPNTSGEIVAVYKRGESFDYDTVIIDVNGYVWVSYIGGSGKRNYVATGATKDGKRFGNAWGTFK
MICinitial [1]: 1 | MICfinal [1, 13]: 0.25 | MICfinal [1, 14]: 0.25 | MICfinal [1, 12]: 0.25 | MICinitial [2]: 1 | MICfinal [2, 13]: 0.25 | MICfinal [2, 14]: 0.25 | MICfinal [2, 12]: 0.25 | MICinitial [3]: 1 | MICfinal [3, 13]: 0.25 | MICfinal [3, 14]: 0.25 | MICfinal [3, 12]: 0.25 | MICinitial [4]: 1 and 2 | MICfinal [4, 13]: 0.125 | MICfinal [4, 14]: 0.5 | MICfinal [4, 12]: 0.25 | MICinitial [5]: 1 | MICfinal [5, 13]: 0.125 | MICfinal [5, 14]: 0.25 | MICfinal [5, 12]: 0.25 | MICinitial [6]: 1 | MICfinal [6, 13]: 0.125 | MICfinal [6, 14]: 0.125 | MICfinal [6, 12]: 0.25 | MICinitial [7]: 1 | MICfinal [7, 13]: 0.25 | MICfinal [7, 14]: 0.25 | MICfinal [7, 12]: 0.25 | MICinitial [8]: 1 | MICfinal [8, 13]: 0.125 | MICfinal [8, 14]: 0.125 | MICfinal [8, 12]: 0.25 | MICinitial [9]: 1 | MICfinal [9, 13]: 0.25 | MICfinal [9, 14]: 1.125 | MICfinal [9, 12]: 0.25 | Log10 CFU/g of Vegetation ([11]; PlySs2 0.18 mg/kg, TSAB supplemented with PlySs2, 128 (unit not given)): 4.6 ± 0.7 Log10 CFU/g | Log10 CFU/g of Vegetation ([11]; PlySs2 0.18 mg/kg, TSAB supplemented with PlySs2, column 16 (unit not printed)): 7.1 ± 0.1 Log10 CFU/g | Log10 CFU/g of Vegetation ([11]; PlySs2 0.18 mg/kg, TSAB supplemented with PlySs2, column 32 (unit not printed)): 7.1 ± 0.1 Log10 CFU/g | Log10 CFU/g of Vegetation ([11]; PlySs2 0.18 mg/kg, TSAB supplemented with PlySs2, column 64 (unit not given)): 6.6 ± 0.9 Log10 CFU/g | Log10 CFU/g of Vegetation ([11]; PlySs2 0.35 mg/kg, TSAB supplemented with PlySs2, 128 (unit not given)): 3.4 ± 1.3 Log10 CFU/g | Log10 CFU/g of Vegetation ([11]; PlySs2 0.35 mg/kg, TSAB supplemented with PlySs2, column 16 (unit not printed)): 6.9 ± 0.2 Log10 CFU/g | Log10 CFU/g of Vegetation ([11]; PlySs2 0.35 mg/kg, TSAB supplemented with PlySs2, column 32 (unit not printed)): 6.4 ± 0.5 Log10 CFU/g | Log10 CFU/g of Vegetation ([11]; PlySs2 0.35 mg/kg, TSAB supplemented with PlySs2, column 64 (unit not given)): 5.5 ± 0.6 Log10 CFU/g | Log10 CFU/g of Vegetation ([11]; PlySs2 0.7 mg/kg, TSAB supplemented with PlySs2, 128 (unit not given)): <2.1 ± 0.1 Log10 CFU/g | Log10 CFU/g of Vegetation ([11]; PlySs2 0.7 mg/kg, TSAB supplemented with PlySs2, column 16 (unit not printed)): 6.7 ± 0.1 Log10 CFU/g | Log10 CFU/g of Vegetation ([11]; PlySs2 0.7 mg/kg, TSAB supplemented with PlySs2, column 32 (unit not printed)): 5.7 ± 1.1 Log10 CFU/g | Log10 CFU/g of Vegetation ([11]; PlySs2 0.7 mg/kg, TSAB supplemented with PlySs2, column 64 (unit not given)): 3.8 ± 1.8 Log10 CFU/g | Log10 CFU/g of Vegetation ([11]; PlySs2 1.4 mg/kg, TSAB supplemented with PlySs2, 128 (unit not given)): 2.8 ± 1.2 Log10 CFU/g | Log10 CFU/g of Vegetation ([11]; PlySs2 1.4 mg/kg, TSAB supplemented with PlySs2, column 16 (unit not printed)): 7.1 ± 0.06 Log10 CFU/g | Log10 CFU/g of Vegetation ([11]; PlySs2 1.4 mg/kg, TSAB supplemented with PlySs2, column 32 (unit not printed)): 5.9 ± 0.03 Log10 CFU/g | Log10 CFU/g of Vegetation ([11]; PlySs2 1.4 mg/kg, TSAB supplemented with PlySs2, column 64 (unit not given)): 4.2 ± 1.7 Log10 CFU/g | Log10 CFU/g of Vegetation ([11]; single dose PlySs2 0.18 mg/kg, four days after treatment, TSAB non-selective (0)): 8.65 ± 0.58 Log10 CFU/g | Log10 CFU/g of Vegetation ([11]; single dose PlySs2 0.35 mg/kg, four days after treatment, TSAB non-selective (0)): 8.17 ± 0.58 Log10 CFU/g | Log10 CFU/g of Vegetation ([11]; single dose PlySs2 0.7 mg/kg, four days after treatment, TSAB non-selective (0)): 7.93 ± 0.12 Log10 CFU/g | Log10 CFU/g of Vegetation ([11]; single dose PlySs2 1.4 mg/kg, four days after treatment, TSAB non-selective (0)): 8.24 ± 0.02 Log10 CFU/g
